# B1: TPR t1 (parent)
# chain: GACCAAUCUGCCCUCAGAGCUCGAGAACAUCUUCGGAUGCAGAGGAGGCAGGCUUCGGUGGCGCGAUAGCGCCAACGUCCUCAACCUCCAAUGCAUCCCACCACAUGAUGAUGCCUGAAGAGCCUUGGUUUUUUG
# Variants of: B1
# Experiment: polymerase ribozyme fitness, log enrichment relative to wild type (log ratio); higher = more active; in vitro selection for triplet polymerase activity
# Summary of the method: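 After PCR construction and transcription, each subunit's mutant library from a heterodimeric triplet polymerase ribozyme was annealed with a biotinylated primer, the partner subunit and triplets. Incubation was frozen, at −7 °C, and extended constructs were gel-excised, bound to streptavidin beads and amplified by RT-PCR, in one selection round done in triplicate. Fitness is the logarithm of a genotype's enrichment divided by that of the wild type, from inverse-variance-weighted replicate averages of Illumina-sequenced inputs and outputs. The base of the logarithm is 2, and genotypes needed ≥10 input reads and ≥1 read per output.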
row,Variant,polymerase ribozyme fitness (log ratio)
1,U7G C72U G93C C115U,0.15
2,C8A C12G U54A,0.0252
3,U7G C79U U81C C86U C88A U125A,-4.3
4,C8G A18U G52U A90C,-1.7
5,C8G A18U C98U,-2.18
6,C8G C76U,-0.187
7,C8G C64U G135U,0.0899
8,C8A U59C A105G C123A,-2.08
9,C8A A26G C56G C115U,-1.74
10,C8G C22G G36A C85U U112A,-2.18
11,C8G C34G G39C G120U,-4.99
12,C8A C115A U125G,1.5
13,C8G G35A,-2.23
14,C8A A41U G69U C86A,-0.0176
15,C8G C56A C123A,1.29
16,U7G U9A A27U C72U U87A U126A,-3.36
17,C8A G10C A50U C72U,-1.02
18,C8G C20U A46U G52C,-3.42
19,C8A C62U,0.19
20,C8G U9C A41C A43U G52A U112A,-0.712
21,C8G C11U C85U U130C,-0.895
22,C8G C40G G71U U81G C82U,-0.811
23,C8U A50U C104U C123U,1.14
24,C8U C11U A29U C70A,-3.03

row,Variant,polymerase ribozyme fitness (log ratio)
1,C8A C28G C53A,-2.01
2,C8U C13A A37C G61U U87G C102U,-1.74
3,C8G G52U C73A U92G,-2.91
4,C8G G57A G117A A119U G135U,-2.27
5,C8A G39A,-0.0887
6,C8U C12A G19U U59C A75U G120A,-1.37
7,U7G G36U U96C C104U,-3.09
8,C8G G10U G69U A95U C102A C114G U129G,-2.33
9,C8A C49U C73U U130A,-0.88
10,C8G G117A,0.795
11,C8G G63A G127C,-1.12
12,C8U C12A A84C U116C,0.149
13,C8A C11G C64A A103C A119U G120A,-6.83
14,C8G U14G G36U C62U C80U G120A,0.635
15,C8G G47C C82U,-1.06
16,C8G C89A G117A U129A,-2.73
17,C8A C56A C70A C98U C123G,-1.64
18,C8A U67C,-3.31
19,C8U A41C C73A G122A,0.223
20,C8G A103U,-3.34
21,C8G G48C A90U U112A,0.378
22,C8U A18U,-1.03
23,C8G C20U G42U A83U U116C C123A,-3.74
24,C8A C40U C53A,0.276

row,Variant,polymerase ribozyme fitness (log ratio)
1,C8U A18C A41U A50G C72G C101U,-3.51
2,C8A A100U U116G U133A G135U,-0.711
3,C8U A43G C89G C98U G135U,-4.02
4,C8A U30C G69U A118U G120A U129G,-1.47
5,C8G G10A,0.258
6,C8U A103C,-4.8
7,C8A C49A G61A,0.627
8,C8G A43U A95U U109A C123G,-5.23
9,C8A C13U C49G,0.151
10,C8A U54G A111U U116G A119U U130G,-7.62
11,C8A C53A U78C C80U,-0.244
12,C8A C62U A74U,0.227
13,C8A G36U C76A U131C,-1.09
14,C8G U14G G61C A66C,-2.35
15,C8G C22A C53U C89A C114U G117A G135A,-3.7
16,C8G U87A,0.833
17,C8G G44A U92A C97U,-2.59
18,C8G C62U U87A U112G G113U C123U G127A,-4.35
19,C8G U59G C82U C85A U126C,-1.16
20,U7G C73A U92A,-2.35
21,C8A G47U U78G U81G,-4.17
22,C8A U21A A84U,-0.224
23,C8A C70U A91C U116A,-2.96
24,C8G G44A G63U U125G,-2.03

row,Variant,polymerase ribozyme fitness (log ratio)
1,C8G A27U A46C G69U U78A C114U,-4.5
2,C8G C15U A18C C53A U55A C56G,-1.96
3,C8A C72G C85A A111G U126C,-1.51
4,C8G C53U C89A,-1.28
5,C8A U129A,-0.0105
6,C8G U32C A90C,-0.367
7,C8A A100C,-0.0614
8,C8G G107U C123G,-2.76
9,C8A G19U,-2.62
10,C8A G47U C49U G110U,-3.49
11,C8A C123A C124U G127U,0.694
12,C8A C20G G45U C73U C123G,-5.63
13,C8G C40G U81G C82U,-0.759
14,C8G C15U G69C A90U,-3.02
15,C8A A91C G117C,-2.17
16,C8A G51C C53A C88A C114A,-5.74
17,C8A G44U G51U U59C G77U U112C U130A,-4.84
18,C8G G25A A26G C73U G128A,-4.47
19,C8G C15A G51U C76U C98U,-4.46
20,C8A C11G C13U C20A G36A U78C,-3.05
21,U7G C56A G57A G93U,-1.03
22,C8A G63C C86A G93C,-3.35
23,C8A C40U G61U U78A C80G A100C,-6.33
24,C8A A16U G120U U130G,1.06

row,Variant,polymerase ribozyme fitness (log ratio)
1,C8U C11G G93A,-0.424
2,C8G U38C G42A C56U C124A,-1.34
3,U7G G69U,0.479
4,U7G G65U,-5.58
5,U7G G71U C97G G120U U132C,-3.27
6,C8A A43C C70G,-6.43
7,C8G G47U,0.0211
8,C8G U9G C22G,-3.24
9,C8G C73A G120C,2.29
10,C8A C13G G60C A90U U109G A119U,-6.32
11,C8A C13G C80U,-0.499
12,C8G G35C A50U A118U,-5.01
13,C8G C89A A105U,-3.66
14,U7G C72U U81A A91C G107C U112C,-5.54
15,U7G U9A G120C,1.99
16,C8G C79G C80A,-5.06
17,C8G C13A A16U,0.292
18,C8A G61A U131C,0.52
19,C8G G10U G36U,-0.687
20,C8G A18U U21A C79A C123G,-3.84
21,U7G G52A U106C G122U U131G,-0.951
22,U7G C104A C123G G128C,-3.67
23,C8G C20G C72U A95G,-3.64
24,C8A G117U A119U C123U,-0.478

row,Variant,polymerase ribozyme fitness (log ratio)
1,C8G C34U C70A G117A U126A,-6.92
2,U7G G71C,-0.641
3,U7G G47U G113C,-2.84
4,C8A U30A A46C U109G A119U,-6.8
5,C8G A27U C104A U133A,-3.65
6,U7G U96C,-0.0298
7,C8G G117C C124A,-0.905
8,C8G C70G,-1.84
9,U7G C72U C115U,0.671
10,C8G C34G C88U U112C G113A,-6.08
11,C8A C28G U96A,-3.08
12,C8A A18C U38G G61C C94U G110U C123U,-7.38
13,C8G C12G U30C C53G C114U,-4.29
14,U7G C88U A119G,1.51
15,C8G C11G C56A C104A,-1.39
16,C8G C40A U78C,-0.518
17,C8A C72U U133A,-0.145
18,C8G G10A C20U A24U C49U G61A C80G G120U,-7.85
19,C8G G36A A121C U131G,1.28
20,C8G G120C,2.34
21,C8G G120A,1.78
22,C8G C11U,1.67
23,C8G C13A,0.587
24,C8G C13G,0.865

row,Variant,polymerase ribozyme fitness (log ratio)
1,C8G C40A C70G C114A,-5.85
2,C8U C11G G48C C56U C89U G117U,-1.01
3,C8U A74U C94A,-0.334
4,C8A G51U C53G U81G C114A,-5.79
5,U7G G77A A83C,0.167
6,C8A G42U U96A A100U,-2.37
7,C8A U59A,-0.964
8,U7G G45C G47A U59C,-1.08
9,C8G U30C G60C,-4.49
10,U7G C124A,1.74
11,C8G C22G,-3.9
12,C8G C28A U130A,-5.09
13,U7G U54A C102A U112A U131A,-0.106
14,C8G A75G C88A C124U,1.57
15,C8G U9G C12G C49G,-0.256
16,C8A G45C G58A C97G U106A,-3.12
17,C8A C12A C70U G77C U92A G127U U130G U131A,-6.59
18,C8G U21A U54C C72A,0.0731
19,C8G C53G C56U G93C,0.798
20,C8G A50U C56A C79G A100G A111U,-5.8
21,C8A U38G A43C G61C C123A,-4.73
22,C8G A41C G63U G113A A118G,-3.33
23,C8G C102A,-1.02

# From the RNAGym collection of RNA variant scans (doi:10.1073/pnas.2313332121)
